# From the nanobody polyreactivity screen of Harvey et al. (2022)
# Test: yeast display, Sf9 membrane polyspecificity reagent, FACS + sequencing; frameworks hold sequencing errors
# Procedure, shortened: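 A synthetic nanobody library was expressed on Saccharomyces cerevisiae BJ5465 by galactose induction for 36–48 hours. The library was stained for 1 hour at 4 °C with 10% biotinylated, detergent-solubilized Sf9 membrane reagent and enriched with streptavidin microbeads before FACS. Low and high (top ~1%) gates were set on anti-HA fluorescence for expression and streptavidin fluorescence for reagent binding, and each polyreactivity label reflects the gate of origin.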
sequence,measurement,value
QVQLVESGGGLVQAGGSLRLSCAASGFTIWQNAMGWYRQAPGKERELVAGIRLSGGSTYADSVKGRFTISRDNAKNTVYLQMNSLKAEDTAVYYCNAAYKNSPYDYWGQGTQVTVSS,polyreactivity (PSR sort gate),high polyreactivity
QVQLQESGGGLVQAGGSLRLSCEASGSISHYIFMGWYRQAQGKEREFVAGIGYGGTTNYADSVKGRFTISRDNAKNTVYLQMNSLKPEDTAMYYCAAREATEFYLYYWGQGTQVTVSS,polyreactivity (PSR sort gate),low polyreactivity
QVQLVESGGGLVQAGGSLRLSSAASGFIFRTYAMGRYRQAHGKESQLVAAISGTTGSKYYADSVKGRFTISRDNAKNTVYLQMNSLKPEDTAVYYCAADFYWYIRYDYWGQGTQVTVSS,polyreactivity (PSR sort gate),low polyreactivity
QVQLVESGGGLVQAGGSLRLSCAASGRIFDSNDMGWYRQAPGKEREFVAAITSSGGSTYYADSVKGRFTISRDNAKNTVYLQMNSLKPEDTAVYYCAARVYPRPQSYDKRYYWGQGTQVTVSS,polyreactivity (PSR sort gate),low polyreactivity
QVQLVESGGGLVQAGGSLRLSCAASGSIFGLYAMGWYRQAPGKERELVAAITDSTGSTSYADSVKGRFTISRDNAKNTVYLQMNSLKPEDTAVYYCAAGQGRWRHGFDYWGQGTQVTVSS,polyreactivity (PSR sort gate),low polyreactivity
QVQLVESGGGLVQAGGSLHLSCAASGSIFPYNLMGWYRQAPGKERELVAAISNTGSTNYADSVKGRFTISRDNAMNTVYFQMNSLKPDDTAVYYCNADGSYGFWSLLDYDYWGQGTQVTVSS,polyreactivity (PSR sort gate),low polyreactivity
QVQLVESGGGLVQAGGSLRLSCAASGSIFSHYVMGWYRQAPGKERELVAAISRSGGTTYYADSVKGRFTISRDNAKNTVYLQMNSLKPEDTAVYYCNVRGEPYPYYDGYEYDYWGQGTQVTVSS,polyreactivity (PSR sort gate),low polyreactivity
QDQLVESGVGLVQAGGILRLSCAASVSTFNRYAMVWYRQAPGKERELVAAISSSGGYTYYADSVKGRFTNSRDNAKNTVYFQMNSLKAEDTAVYYCNAAYRVRRFDYWGQGTQVTVSS,polyreactivity (PSR sort gate),low polyreactivity
QVQLVESGGGLVQAGGSRRLSCAASGRIFTTYAMGWYRQAPGKERELVAAITRNGGRTYYADSVKGRFTLSRDNAKNTVYVPMHSLKPEDTAVYYCAAVYRSFGKVYGMDYWGQGTQVTVSS,polyreactivity (PSR sort gate),high polyreactivity
QVQLVETGGGLVQAGGSLLLSCAASGFTLLSYAMGWYRQAPGKERELVAAISESGVSTSYADSVKGRFTISRDNAKNTVYLQMKSLKPEDTAFYYCNKSDFWVVIYDSWGQGTQVTVSS,polyreactivity (PSR sort gate),low polyreactivity
QVQLVESGGGLVQAGGSLRLSCAASGFIFASNAMGWYRPAPGKERELVAAISTNGGSTNYADSVKGRFTISRDNAKKTVYLQMNSLKPEDTAVYYCNTDFPTQYGTRIGDDYWGQGTQVTVSS,polyreactivity (PSR sort gate),low polyreactivity
QDQHVESGGGLVQAGGSLRLSCDASGFIFNQNARGWYRQAPGKERELVAAISQRGGRTYYADSVKGRFTISRDNAKNTVYLQMNSLKPEDTAVYYCAAYGPFRFDVDTYDYWGQGTQVTVSS,polyreactivity (PSR sort gate),low polyreactivity
QVQLVESGGGLDQAGGSLRLSCAASGSIFSVYAMGWYRQARGKERELVAAITSGTSTYADSVKGRFTISRDNAKNSVYLQMNSLKPEDTAVYYCAAESGSPGYYYWGQGTQVTVSS,polyreactivity (PSR sort gate),low polyreactivity
QDQLVESGGGLVQAGGSLRLSCAASGSIFRVYAMGRYRQAPGKERELVAAISSIVGSTYYADSVKGRFTISRDNAKNSVYLQMNSLKPEDTAVYDCNKEGTWPRTGSEYDSWGQGSQVTVSS,polyreactivity (PSR sort gate),low polyreactivity
QVQLVESGGCLVQAGGSLRLSCAASGFTFGPYAMGWYRQARGKERELVATLRSGDSTNYADSVKGRFTISRDNAKNTVYLQMNSVKPDDTAVYYCAVSYLSTMGRSRYEYWGQGTQVTVSS,polyreactivity (PSR sort gate),low polyreactivity
QVQLVESGGGLVQAGGSLRLSCAASGFIFPWYAMGWYRQAPGKERELVAIISWDTGSTYYADSVKGRFTISRDNAKNTVYLQMNSLKPEDTAVYYCAAQQPYAGLYYWGQGTQVTVSS,polyreactivity (PSR sort gate),low polyreactivity
QVQLVESGGGLVQAGGSLRLSCAASGIIFYKNDMGWYRQAPGKERELVAAINRSGGRTYYADSVKGRFTISRDNAKNTVYLQMNSLKPEDTAVYYCATDKVSHRRYDYWGQGTLVTVSS,polyreactivity (PSR sort gate),high polyreactivity
QVQLEESGGGLVQAGGSLRLSCAASGRIFVFYDMGWYRQAPGKERELVATITRSGGRTYYADSVKGRFTISRDNAKNTVYLQMNSLKPEDTAVYYCAARRYGKYDYWGQGTQVTVSS,polyreactivity (PSR sort gate),low polyreactivity
QVQLVESGGGLVQAGGSLRLSCAASGSISYINAMGWYRQAPGKERELVARIRSGDRTNYADSVKGRFTISRDNAKNTVYLQMNSLKPEDTAVYYCAARGLRTGGYWGQGTQVTVSS,polyreactivity (PSR sort gate),high polyreactivity
QVQLVESGGGLVQAGGSLRLSCAASGSIFPAYAMGWYRQAPGKERELVASITGSGGSTYYADSVKGRFTISRDNAKNTVYLQMNSLKPEDTAVYYCNARYYVYSATVDRYYHFYYWGQGTQVTVSS,polyreactivity (PSR sort gate),high polyreactivity
EVQLVESGVGLVQAGGSLRLSCAASASIFLSYAMGCYRQAPGKVRELVDAISRRGGSTYYADSVKGRFTISRDFAKNTVYLQMNSLKPEDTAVYYCAADLTGPYDYWGQGTQVTVSS,polyreactivity (PSR sort gate),high polyreactivity
QVQLVESGGGLVQAGGSLRLSCAASGSIFAYNAMGWYIQSPGTERELVAAISSSGGSTTYADSVKGRFTISRDNAKYTVYLQMNSLKPEDTAVYYCNAAWRRSRYYYWGQGTQVTVSS,polyreactivity (PSR sort gate),high polyreactivity
